From the supplement of paper PMC12042874
± gives the uncertainty stated by the source.

Assay: amyloid nucleation score (Sup35N fusion, yeast selection) (log enrichment); library NNK2; higher = more nucleation; inactive = no reads after selection
How it was run: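 Libraries of peptides of 20 random codons fused to Sup35N were expressed in psi-negative yeast and induced 24 hours with 100 μM copper sulfate. Selection was 7 days at 30°C on medium lacking adenine and uracil, and plasmid inserts were Illumina-sequenced before and after selection. Nucleation score is the DiMSum log enrichment of output over input reads, centred on the mode score of non-aggregating sequences, and sequences with under 100 input reads were left out.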
Substance FCYQMSEVWIWCKFIFSI has an amyloid nucleation score of -1 ± 1.1.
For KYMRLSLEDYNC, the amyloid nucleation score was 0.533 ± 0.39.
LEKKLFVKVYRHSICIGVAE showed an amyloid nucleation score of 1.9 ± 0.43.
In the case of DGIRVLCLTALPFMWVH, the amyloid nucleation score is reported as “inactive”.
Work on KCGSTFPLDLLYMSY yielded an amyloid nucleation score of -1.16 ± 0.49.
In the case of MYWFGTVHQFRKFSENHRMF, the amyloid nucleation score is reported as 0.721 ± 0.8.
GYVSRDSFVLYWPSRNDCLA showed an amyloid nucleation score of 0.276 ± 0.22.
VYRNNL gave an amyloid nucleation score of -1.84 ± 1.1.
Work on LDLRMRYQVPYQWGTNSAEN yielded an amyloid nucleation score of 0.629 ± 0.48.
Work on FLNNDRYRR yielded an amyloid nucleation score of -1.67 ± 0.78.
With STMREQRRRAWRKDCDVIKV the amyloid nucleation score was 1.84 ± 0.22.
VSKPQKRFKDEFYSLLSVKF gave an amyloid nucleation score of -0.55 ± 0.76.
Substance TYYKRN has an amyloid nucleation score of -0.4 ± 0.34.
HNEPG showed an amyloid nucleation score of -1.2 ± 0.75.
FDYLVNIRHGCTWCRTTI showed an amyloid nucleation score of -0.108 ± 0.4.
Work on FSWLSPMWYMLNDRKLYGNP yielded an amyloid nucleation score of 0.779 ± 0.42.
For NDFWRYV, the amyloid nucleation score was -0.591 ± 0.24.
In the case of QSVYLPLRNVIFPVVVSKCE, the amyloid nucleation score is reported as “inactive”.
For IVNSNWGARRNKRAACQRES, the amyloid nucleation score was -0.317 ± 0.79.
Substance DTKRVSINVRDNVTLRSFSW has an amyloid nucleation score of -0.392 ± 0.33.
Substance FGWLALTKR has an amyloid nucleation score of -1.16 ± 0.34.
In the case of VWEIEGEPPWVQSVCSWDPR, the amyloid nucleation score is reported as 3.85 ± 0.057.
WHGRWSTNRRRPPNKMCRLV gave an amyloid nucleation score of 1.06 ± 0.28.
STPDVVEAWFL showed an amyloid nucleation score of 0.039 ± 0.46.
In the case of QIYGCNWLCLQVRHPV, the amyloid nucleation score is reported as 8.061 ± 0.079.
QTCCTSNEQEFVALA showed an amyloid nucleation score of 0.414 ± 0.32.
In the case of SSLWVWYLIVD, the amyloid nucleation score is reported as 0.145 ± 0.21.
SVLMSCD showed an amyloid nucleation score of 0.135 ± 0.65.
LYVSFDYGAQRVHYSTAYVK gave an amyloid nucleation score of -0.013 ± 0.48.
For MFNVLIGVGRAGVNNPGHSL, the amyloid nucleation score was 0.343 ± 0.64.
SWNMIQSTIFLPCNLGDYTV gave an amyloid nucleation score of 5.678 ± 0.048.
In the case of HFRVMHSFQGQYKVIFK, the amyloid nucleation score is reported as 2.73 ± 0.098.
TSSTSRVDRACPGDSWPDID showed an amyloid nucleation score of -0.068 ± 0.42.
GVQETSYVALCSSLVTRTFV gave an amyloid nucleation score of 1.16 ± 0.44.
With MIVFLYRLY the amyloid nucleation score was -0.061 ± 0.39.
SHRFADILDCV gave an amyloid nucleation score of 0.518 ± 0.24.
Work on SVNYMAFWKVPTCGLQGGKG yielded an amyloid nucleation score of -0.097 ± 0.76.
For RCLLTYSVEYWRIFGTSPDS, the amyloid nucleation score was 0.157 ± 0.5.
In the case of PSNTIYHFIAELNEYETPRF, the amyloid nucleation score is reported as 0.426 ± 0.15.
Substance IRKCICSWCVECILRNPAKA has an amyloid nucleation score of -0.434 ± 0.4.
Substance PYQAIHYVNRCGFWLTASCA has an amyloid nucleation score of 0.36 ± 0.62.
For VVAGEYGWTWFFKESLGLGM, the amyloid nucleation score was -0.332 ± 0.49.
AFWRLAVLFVVCRIIF showed an amyloid nucleation score of 0.13 ± 0.65.
For NLRLDIAFSPWPRSGYNSGS, the amyloid nucleation score was 0.292 ± 0.64.
In the case of NVRDMCLSACTSQWYYYFAV, the amyloid nucleation score is reported as 0.371 ± 0.37.
In the case of DQSFLF, the amyloid nucleation score is reported as -0.039 ± 0.39.
For YVGEKRGSVSEYLLHLLSTG, the amyloid nucleation score was “inactive”.
GLLPVGSVGVRVALVVMRVQ gave an amyloid nucleation score of 1.35 ± 0.36.
In the case of IYTSSGL, the amyloid nucleation score is reported as -0.902 ± 0.54.
IVSAKCYRIMVDFYYGYFRL showed an amyloid nucleation score of 0.01 ± 0.65.
Substance PMRKADRYSSSSET has an amyloid nucleation score of -0.479 ± 1.
With SFRLISRVLRCNMIQ the amyloid nucleation score was -0.881 ± 0.37.
With CLVKCAMPILVINICAG the amyloid nucleation score was 7.82 ± 0.061.
In the case of VQGLHCWIG, the amyloid nucleation score is reported as “inactive”.
SISWVVYSTV gave an amyloid nucleation score of 2.1 ± 0.084.
Work on FWCGCNFVVHLYVTSSSLKP yielded an amyloid nucleation score of 8.006 ± 0.065.
With QSETN the amyloid nucleation score was -0.264 ± 0.29.
Work on IRFWLRRFICD yielded an amyloid nucleation score of -0.528 ± 0.36.
RYRHLTFLVFCIAVPVGFWR showed an amyloid nucleation score of 2.04 ± 0.14.
Substance PVIYSF has an amyloid nucleation score of 7.115 ± 0.031.
YIVACSWYSGLLGLVGYRRK showed an amyloid nucleation score of 7.884 ± 0.036.
For MDLCINNVWWEAKTSSLGLL, the amyloid nucleation score was “inactive”.
Work on NMSCKFSNPWNWFD yielded an amyloid nucleation score of -0.11 ± 0.39.
IATTATSVGSVR showed an amyloid nucleation score of 0.924 ± 0.25.
With GHVHQNLMRLVNFSKKSTSL the amyloid nucleation score was 4.95 ± 0.055.
In the case of CECVSSCVYSVILLGCTRSF, the amyloid nucleation score is reported as “inactive”.
Substance SHLCQVLVVLGGASTV has an amyloid nucleation score of 6.41 ± 0.077.
For RRYMSVDSK, the amyloid nucleation score was “inactive”.
GKRVLRWTNWMAR gave an amyloid nucleation score of 1.83 ± 0.29.
Substance SRACVLWKGLRRAANTC has an amyloid nucleation score of 0.984 ± 0.27.
For YGLDRIFVSGSMNATMIKHN, the amyloid nucleation score was “inactive”.
For SHFCVVCEYTLVSSYHR, the amyloid nucleation score was 5.09 ± 0.09.
Substance LYVRRYNWSHVGFHFCGLDT has an amyloid nucleation score of -0.384 ± 0.79.
Substance CFVKRLHVLWLSKTVCRAVL has an amyloid nucleation score of 0.113 ± 0.21.
In the case of FYRNLLTFFYGVSFN, the amyloid nucleation score is reported as -0.807 ± 1.
Substance WFISGISKLMRHFALKYASM has an amyloid nucleation score of 2.5 ± 0.15.
In the case of YSKTLERVDSSVD, the amyloid nucleation score is reported as 1.26 ± 0.38.
In the case of QYRCGRRLVQRSEVVIVPVC, the amyloid nucleation score is reported as “inactive”.
TTSRLRWKRSHHKW gave an amyloid nucleation score of 1.4 ± 0.29.
Substance CCTTIEGDTLCGCFWD has an amyloid nucleation score of 10.08 ± 0.038.
In the case of GRYLVSKTCFFYLMGNEVN, the amyloid nucleation score is reported as -0.307 ± 0.56.
With RLENMCMASPR the amyloid nucleation score was 0.464 ± 0.46.
For YQKCTRIFQILCGSACLKTR, the amyloid nucleation score was -0.649 ± 0.64.
With DPFSHGEASEWAHLIVSTCT the amyloid nucleation score was 0.408 ± 0.22.
Work on VCYKIVKTSYNSFWDF yielded an amyloid nucleation score of 4.39 ± 0.1.
With ANTVHLKMLANSRSPDGTFR the amyloid nucleation score was 0.441 ± 0.32.
For VLKPYM, the amyloid nucleation score was -1.3 ± 0.54.
